This assay concerns the target Human Leukocyte Antigen (HLA) on the surface of human cells (human). The assay is described as follows: cell-based or functional assay.

“anti-HLA monoclonal antibody clone W6/32 (mouse, ThermoFisher)” showed an antibody concentration of highest luciferase transduction of SKBR3 cells of 10 µg/mL.

These data come from US20260061072A1.
